Values belong to the substance of their own block, whether it stands above or below them.
Columns and labels:
[1] = target: Gephyrin Δ199-233; assay: SEC
[2] = target: LSβ, fusion protein of lumazine synthase and GlyR β-subunit ICD (pentameric GlyR model); assay: co-sedimentation
[3] = target: Gephyrin P1 wt; assay: SEC
[4] = target: Gephyrin P1 wt; assay: ITC
[5] = target: Gephyrin Δ199-233; assay: ITC

stoichiometry N [1]: 3 | gephyrin in the pelleted fraction, fold of wt [2]: 2 fold
Substance: Gephyrin Δ199-233 (natural protein)

stoichiometry N [3]: 3
Substance: Gephyrin P1 wt (natural protein)

KD high-affinity site [4]: 63 nM | KD low-affinity site [4]: 1830 nM | KD high-affinity site [5]: 50 nM | KD low-affinity site [5]: 1540 nM
Substance: GlyR β-subunit ICD peptide (domain or fragment)
